Reference: paper doi:10.1101/2025.05.22.655505 (bioRxiv, 2025)

Key:
[1] = molecular target: Mpox A28 (OPG153), residues 2-361, recombinant antigen (Monkeypox virus; template GenBank …, UniProt A0A7H0DNC4); assay: ELISA
[2] = molecular target: VACV A26 (OPG153), residues 2-361, recombinant antigen (Vaccinia virus strain IHDW (GenBank …, UniProt P24758, strain)); assay: ELISA

B1: 10M2146, human anti-A28 monoclonal antibody, IgG1 (antibody, V domains shown)
VH: EVQLVQSGAEVKKPGESLKISCKGSGYSFTTHWIGWVRQMPGEGLEWLGIIYPGDSETKYSPSFQGQVTISVDKSINTAYLHWSSLKASDTAMYFCARRPKNYYDASGYYNWLDPWGQGTLVTVSS
VL: EIQMTQSPSTLSASVGDRVTITCRASQSLSTWLAWYQQKPGKAPKLLIYKASILESGVPSRFSASGSGTEFTLTISGLQPDDFATYYCQQYNSYLGAFGQGTKVEIK
**Q.** Which results are given for B1?
**A.** binding result [1]: binds; binding result [2]: binds
